Results on 1 molecule are retold here after patent CN115141270A (SHENZHEN KANGMAI BIOTECHNOLOGY CO LTD, dated 2022).

Assay [1] concerns the target T1, SARS-CoV-2 S蛋白(ECD) (购自金斯瑞, Z03481) (SARS-CoV-2, UniProt P0DTC2 14-1213).
Assay [2] addresses SARS-CoV-2 (中国新型冠状病毒, MT226610) live virus, spike glycoprotein (SARS-CoV-2). The assay can be described thus: cell-based or functional assay.
The target in assay [3] is T1, SARS-CoV-2 S蛋白(ECD) (购自金斯瑞, Z03481). The assay can be described thus: ELISA, S protein (ECD) coated at 2 μg/ml, antibody titrated from 10 μg/mL.
In assay [4] the target is T2, SARS-CoV-2 RBD结构域蛋白 (序列来自NC_045512.2, 自行表达) (SARS-CoV-2, UniProt P0DTC2 319-541).
T2 construct: domain: RBD
The assay can be described thus: ELISA, RBD domain protein coated at 2 μg/ml, antibody titrated from 10 μg/mL. (In general: In an ELISA, binding on a coated surface is turned into a signal by an enzyme label.)

B1: 抗体nCoV617 (anti-coronavirus spike glycoprotein human monoclonal antibody) (antibody, V domains shown)
VH: QVQLVESGGGVVQPGRSLRLSCAASGFTFSSYAMHWVRQAPGKGLEWVALISYDGSNKYYADSVKGRFTISRDNSKNTLYLQMNSLRAEDTAVYYCARGLGLRFLEWPISSYWGQGTLVTVSS
VL: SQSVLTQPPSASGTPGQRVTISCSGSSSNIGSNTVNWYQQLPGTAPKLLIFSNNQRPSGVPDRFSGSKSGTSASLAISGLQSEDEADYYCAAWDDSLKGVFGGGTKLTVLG
notes: also called 抗S蛋白抗体; 抗冠状病毒刺突糖蛋白单克隆抗体
A word on the Kd: it is the concentration at which binding is half-saturated. Lower therefore signals a tighter complex. By EC50 is commonly meant the concentration at which the effect is half-maximal. Higher therefore signals weaker potency. In assay [1], B1 gave a Kd of 8.02 nM. Moreover, the “IC50 (neutralisation of live virus on Vero E6 cells, cytopathic effect)” value in assay [2] is 2.3 ng/mL. In addition, the EC50 came out at 2 ng/mL in assay [3] and 3 ng/mL in assay [4].
